From patent US20090118184A1 (UNIVERSITY OF ROCHESTER, published 2009)
Substitutions are numbered along the chain they refer to.

What was measured:
Assay in all cases: cell-based or functional assay
[1] = target: T1, factor VIIIa A1/A3C1C2 dimer, R1966A (human, UniProt P00451 20-391; P00451 1709-2351)
T1 sequence 1: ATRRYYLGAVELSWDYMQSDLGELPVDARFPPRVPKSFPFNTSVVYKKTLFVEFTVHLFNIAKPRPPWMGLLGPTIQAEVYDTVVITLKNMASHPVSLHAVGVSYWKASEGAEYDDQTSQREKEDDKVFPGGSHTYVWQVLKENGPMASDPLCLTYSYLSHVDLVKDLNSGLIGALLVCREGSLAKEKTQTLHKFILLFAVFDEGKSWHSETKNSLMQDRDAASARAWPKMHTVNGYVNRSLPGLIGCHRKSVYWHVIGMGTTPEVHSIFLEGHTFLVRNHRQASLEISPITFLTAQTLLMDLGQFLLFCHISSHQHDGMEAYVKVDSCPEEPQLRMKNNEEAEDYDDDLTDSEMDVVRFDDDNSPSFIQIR
T1 sequence 2: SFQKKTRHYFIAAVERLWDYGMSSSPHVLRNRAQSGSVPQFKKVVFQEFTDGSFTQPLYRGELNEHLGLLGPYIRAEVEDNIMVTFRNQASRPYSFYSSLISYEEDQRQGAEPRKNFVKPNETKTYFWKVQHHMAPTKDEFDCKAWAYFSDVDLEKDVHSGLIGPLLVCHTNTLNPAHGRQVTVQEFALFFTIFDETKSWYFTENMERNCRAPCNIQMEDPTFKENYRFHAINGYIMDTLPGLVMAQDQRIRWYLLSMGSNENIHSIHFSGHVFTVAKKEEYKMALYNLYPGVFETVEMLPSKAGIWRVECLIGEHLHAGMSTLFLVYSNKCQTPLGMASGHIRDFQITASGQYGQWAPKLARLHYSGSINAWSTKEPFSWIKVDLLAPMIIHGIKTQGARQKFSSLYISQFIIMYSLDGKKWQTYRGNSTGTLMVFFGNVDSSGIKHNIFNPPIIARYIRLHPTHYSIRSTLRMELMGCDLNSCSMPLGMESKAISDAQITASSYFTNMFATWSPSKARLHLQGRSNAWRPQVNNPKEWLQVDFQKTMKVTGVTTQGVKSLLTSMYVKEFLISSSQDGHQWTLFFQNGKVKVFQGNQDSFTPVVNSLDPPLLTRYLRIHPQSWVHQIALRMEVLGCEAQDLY

[2] = target: T2, factor VIIIa A1/A3C1C2 dimer, H317A (human, UniProt P00451 20-391; P00451 1709-2351)
T2 chain 1: T1 sequence 1 with H317A
T2 chain 2: T1 sequence 2 with A277R

[3] = target: T3, factor VIIIa A1/A3C1C2 dimer, wild type (human, UniProt P00451 20-391; P00451 1709-2351)
T3 sequence 1: T1 sequence 1
T3 sequence 2: T1 sequence 2 with A277R

[4] = target: T4, factor VIIIa A1/A3C1C2 dimer, D27A (human, UniProt P00451 20-391; P00451 1709-2351)
T4 chain 1: T1 sequence 1 with D27A
T4 chain 2: T1 sequence 2 with A277R

B1: factor VIIIa A2 subunit, wild type (other)
chain: SVAKKHPKTWVHYIAAEEEDWDYAPLVLAPDDRSYKSQYLNNGPQRIGRKYKKVRFMAYTDETFKTREAIQHESGILGPLLYGEVGDTLLIIFKNQASRPYNIYPHGITDVRPLYSRRLPKGVKHLKDFPILPGEIFKYKWTVTVEDGPTKSDPRCLTRYYSSFVNMERDLASGLIGPLLICYKESVDQRGNQIMSDKRNVILFSVFDENRSWYLTENIQRFLPNPAGVQLEDPEFQASNIMHSINGYVFDSLQLSVCLHEVAYWYILSIGAQTDFLSVFFSGYTFKHKMVYEDTLTLFPFSGETVFMSMENPGLWILGCHNSDFRNRGMTALLKVSSCDKNTGDYYEDSYEDISAYLLSKNNAIEPR
Factor VIIIa decay rate relative to wild type, FIXa (+) [1]: 1.44 relative to wild type
Factor VIIIa decay rate, FIXa (+) [1]: 0.0163 min⁻¹
Factor VIIIa decay rate relative to wild type, FIXa (+) [2]: 1.28 relative to wild type
Factor VIIIa decay rate, FIXa (+) [2]: 0.0145 min⁻¹
Factor VIIIa decay rate relative to wild type, FIXa (+) [3]: 1 relative to wild type
Factor VIIIa decay rate relative to wild type, FIXa (-) [3]: 1 relative to wild type
Factor VIIIa decay rate, FIXa (+) [3]: 0.0113 min⁻¹
Factor VIIIa decay rate, FIXa (-) [3]: 0.0631 min⁻¹
Factor VIIIa decay rate relative to wild type, FIXa (+) [4]: 0.79 relative to wild type
Factor VIIIa decay rate, FIXa (+) [4]: 0.0089 min⁻¹
